Test results reported in the supplement of paper PMC9112550, “Optimization of the antimicrobial peptide Bac7 by deep mutational scanning” (BMC Biology, 2022).

Test system: Escherichia coli TOP10
Assay: shrunken log2 fold change of peptide-encoding DNA abundance (4.5 h post-induction vs induction); higher = less antimicrobial activity (less host growth inhibition)
Settings: time post-induction: 4.5 h; library: site-saturation at positions 5, 18, 19, 20
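Note: peptides expressed intracellularly from a pBAD plasmid library in pooled LB shake-flask culture, induced with 0.3% L-arabinose, DNA abundance read by NGS, three biological replicates, DESeq2 with apeglm shrinkage.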

Sequence	shrunken log2 fold change
RRIRPRPPRLPRPRPRPDNGPRP	-0.332
RRIRRRPPRLPRPRPRPFNPPRP	-0.277
RRIRLRPPRLPRPRPRPRLDPRP	0.363
RRIRYRPPRLPRPRPRPVQVPRP	0.0039
RRIRERPPRLPRPRPRPFKTPRP	-0.0273
RRIRIRPPRLPRPRPRPWKLPRP	-0.0644
RRIRIRPPRLPRPRPRPATAPRP	0.0897
RRIRYRPPRLPRPRPRPENSPRP	-0.0207
RRIRVRPPRLPRPRPRPPPMPRP	0.641
RRIRCRPPRLPRPRPRPVMLPRP	-0.433
RRIRDRPPRLPRPRPRPQNHPRP	-0.34
RRIRIRPPRLPRPRPRPGFMPRP	-0.487
RRIRQRPPRLPRPRPRPANHPRP	-0.728
RRIRMRPPRLPRPRPRPIRYPRP	0.0982
RRIRYRPPRLPRPRPRPTNNPRP	-1.14
RRIRDRPPRLPRPRPRPYFKPRP	-0.381
RRIRERPPRLPRPRPRPPQVPRP	0.207
RRIRRRPPRLPRPRPRPIDPPRP	-0.0222
RRIRKRPPRLPRPRPRPTQKPRP	0.0634
RRIRHRPPRLPRPRPRPREVPRP	0.151
RRIRIRPPRLPRPRPRPETNPRP	-0.264
RRIRWRPPRLPRPRPRPIGCPRP	0.268
RRIRARPPRLPRPRPRPGLIPRP	0.0698
RRIRSRPPRLPRPRPRPPWAPRP	0.643
RRIRMRPPRLPRPRPRPDVWPRP	1.19

Sequence	shrunken log2 fold change
RRIRMRPPRLPRPRPRPHSMPRP	-0.0253
RRIRRRPPRLPRPRPRPNWLPRP	0.121
RRIRYRPPRLPRPRPRPAFMPRP	-0.658
RRIRKRPPRLPRPRPRPHPRPRP	1.27
RRIRRRPPRLPRPRPRPDFQPRP	-0.135
RRIRIRPPRLPRPRPRPTSTPRP	-0.0986
RRIRMRPPRLPRPRPRPTYEPRP	-0.16
RRIRHRPPRLPRPRPRPMTHPRP	-0.235
RRIRVRPPRLPRPRPRPMGHPRP	0.0767
RRIRGRPPRLPRPRPRPQRTPRP	0.853
RRIRFRPPRLPRPRPRPIRYPRP	-0.125
RRIRCRPPRLPRPRPRPEKIPRP	0.117
RRIRVRPPRLPRPRPRPSWHPRP	-0.00555
RRIRIRPPRLPRPRPRPNKLPRP	-0.499
RRIRERPPRLPRPRPRPEDFPRP	0.089
RRIRHRPPRLPRPRPRPPADPRP	0.492
RRIRDRPPRLPRPRPRPVYCPRP	-0.115
RRIRARPPRLPRPRPRPCHTPRP	0.0762
RRIRKRPPRLPRPRPRPPVHPRP	0.273
RRIRFRPPRLPRPRPRPQIGPRP	-0.128
RRIRFRPPRLPRPRPRPKGKPRP	0.195
RRIRQRPPRLPRPRPRPPYLPRP	-0.289
RRIRARPPRLPRPRPRPYDHPRP	-0.57
RRIRCRPPRLPRPRPRPYEIPRP	-0.00133
RRIRHRPPRLPRPRPRPIGHPRP	-0.0911

Sequence	shrunken log2 fold change
RRIRFRPPRLPRPRPRPSDEPRP	-0.308
RRIRCRPPRLPRPRPRPWKFPRP	-0.318
RRIRERPPRLPRPRPRPMAYPRP	-0.0427
RRIRQRPPRLPRPRPRPKNFPRP	-0.0816
RRIRERPPRLPRPRPRPIDFPRP	0.136
RRIRIRPPRLPRPRPRPQYRPRP	-0.0599
RRIRARPPRLPRPRPRPTRAPRP	1
RRIRTRPPRLPRPRPRPNVIPRP	-0.372
RRIRNRPPRLPRPRPRPMISPRP	-0.0707
RRIRRRPPRLPRPRPRPYLDPRP	-0.546
RRIRARPPRLPRPRPRPRKAPRP	0.0975
RRIRGRPPRLPRPRPRPRYDPRP	-0.057
RRIRFRPPRLPRPRPRPLNSPRP	-0.377
RRIRWRPPRLPRPRPRPYCWPRP	-0.127
RRIRRRPPRLPRPRPRPCEEPRP	0.218
RRIRPRPPRLPRPRPRPWDVPRP	0.308
RRIRRRPPRLPRPRPRPLECPRP	0.0527
RRIRYRPPRLPRPRPRPGKVPRP	-0.204
RRIRVRPPRLPRPRPRPMQVPRP	0.121
RRIRIRPPRLPRPRPRPEWTPRP	-0.0261
RRIRTRPPRLPRPRPRPNCPPRP	-0.0894
RRIRLRPPRLPRPRPRPKPKPRP	0.607
RRIRMRPPRLPRPRPRPHGMPRP	-0.0062
RRIRQRPPRLPRPRPRPFCHPRP	0.00489
RRIRVRPPRLPRPRPRPPDAPRP	0.254

Sequence	shrunken log2 fold change
RRIRLRPPRLPRPRPRPPEFPRP	0.0526
RRIRGRPPRLPRPRPRPCLEPRP	0.546
RRIRIRPPRLPRPRPRPDMSPRP	-0.00804
RRIRYRPPRLPRPRPRPKAPPRP	0.291
RRIRFRPPRLPRPRPRPEVAPRP	-0.088
RRIRNRPPRLPRPRPRPHDRPRP	-0.146
RRIRRRPPRLPRPRPRPWHTPRP	-0.456
RRIRTRPPRLPRPRPRPAMSPRP	0.00971
RRIRNRPPRLPRPRPRPGFDPRP	0.189
RRIRPRPPRLPRPRPRPGVFPRP	0.144
RRIRARPPRLPRPRPRPVKRPRP	0.138
RRIRQRPPRLPRPRPRPYLGPRP	-0.0158
RRIRLRPPRLPRPRPRPMRLPRP	0.0402
RRIRSRPPRLPRPRPRPNGEPRP	0.0431
RRIRMRPPRLPRPRPRPWMHPRP	-0.128
RRIRTRPPRLPRPRPRPQVCPRP	0.0443
RRIRERPPRLPRPRPRPFGWPRP	0.213
RRIRDRPPRLPRPRPRPSGYPRP	0.0153
RRIRQRPPRLPRPRPRPVKEPRP	-0.0231
RRIRLRPPRLPRPRPRPKPCPRP	-0.158
RRIRDRPPRLPRPRPRPVSHPRP	0.00713
RRIRVRPPRLPRPRPRPYPHPRP	-0.342
RRIRCRPPRLPRPRPRPKVAPRP	-0.118
RRIRQRPPRLPRPRPRPERFPRP	-0.0441
RRIRQRPPRLPRPRPRPSINPRP	-0.806

Sequence	shrunken log2 fold change
RRIRKRPPRLPRPRPRPMGSPRP	0.0567
RRIRLRPPRLPRPRPRPEAYPRP	0.0406
RRIRARPPRLPRPRPRPLSDPRP	0.248
RRIRTRPPRLPRPRPRPQEMPRP	-0.0617
RRIRERPPRLPRPRPRPLMHPRP	-0.231
RRIRNRPPRLPRPRPRPQLYPRP	-0.206
RRIRDRPPRLPRPRPRPKSGPRP	0.0754
RRIRWRPPRLPRPRPRPVDFPRP	0.0271
RRIRDRPPRLPRPRPRPGVNPRP	0.148
RRIRGRPPRLPRPRPRPTKWPRP	0.262
RRIRSRPPRLPRPRPRPWLKPRP	0.0524
RRIRSRPPRLPRPRPRPGHYPRP	-0.645
RRIRLRPPRLPRPRPRPFGAPRP	-0.0596
RRIRLRPPRLPRPRPRPNNCPRP	-0.207
RRIRHRPPRLPRPRPRPVCNPRP	-0.761
RRIRDRPPRLPRPRPRPSPIPRP	0.0798
RRIRLRPPRLPRPRPRPAPAPRP	0.512
RRIRDRPPRLPRPRPRPMCMPRP	0.0237
RRIRDRPPRLPRPRPRPHVAPRP	-0.0272
RRIRSRPPRLPRPRPRPAHMPRP	-0.138
RRIRLRPPRLPRPRPRPYYNPRP	-1.18
RRIRARPPRLPRPRPRPIGRPRP	0.00162
RRIRLRPPRLPRPRPRPLNNPRP	-0.593
RRIRERPPRLPRPRPRPGHMPRP	-0.247
RRIRKRPPRLPRPRPRPPAMPRP	0.635

Sequence	shrunken log2 fold change
RRIRIRPPRLPRPRPRPLDWPRP	-0.418
RRIRLRPPRLPRPRPRPFINPRP	-0.572
RRIRIRPPRLPRPRPRPGNHPRP	-0.227
RRIRTRPPRLPRPRPRPWRSPRP	-0.0438
RRIRRRPPRLPRPRPRPLCHPRP	0.182
RRIRMRPPRLPRPRPRPCGIPRP	-0.0517
RRIRNRPPRLPRPRPRPIRRPRP	-0.163
RRIRSRPPRLPRPRPRPHDAPRP	-0.142
RRIRIRPPRLPRPRPRPLQFPRP	-0.0429
RRIRDRPPRLPRPRPRPCGRPRP	0.147
RRIRTRPPRLPRPRPRPARVPRP	0.195
RRIRGRPPRLPRPRPRPEACPRP	1.11
RRIRFRPPRLPRPRPRPALDPRP	0.436
RRIRKRPPRLPRPRPRPSPKPRP	0.057
RRIRIRPPRLPRPRPRPPQHPRP	-0.107
RRIRVRPPRLPRPRPRPDDSPRP	0.13
RRIRLRPPRLPRPRPRPSHQPRP	-0.231
RRIRYRPPRLPRPRPRPSLSPRP	-0.623
RRIRWRPPRLPRPRPRPQCPPRP	-0.357
RRIRRRPPRLPRPRPRPYKAPRP	-0.108
RRIRERPPRLPRPRPRPLLIPRP	-0.437
RRIRWRPPRLPRPRPRPVMIPRP	0.0436
RRIRDRPPRLPRPRPRPGTKPRP	-0.0282
RRIRERPPRLPRPRPRPMVWPRP	-0.0633
RRIRQRPPRLPRPRPRPRVHPRP	-0.163
